Data on two substances can be found in paper PMC7480081.

The series has as its target T1, Csa3b (Sulfolobus islandicus REY15A) (UniProt F0NH47).
T1 sequence: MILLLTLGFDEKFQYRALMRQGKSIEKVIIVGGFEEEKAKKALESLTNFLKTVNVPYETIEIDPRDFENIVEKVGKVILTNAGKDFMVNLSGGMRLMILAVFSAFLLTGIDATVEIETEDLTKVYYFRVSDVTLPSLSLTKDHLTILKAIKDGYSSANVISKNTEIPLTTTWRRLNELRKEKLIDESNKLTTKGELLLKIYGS
The series is described as follows: LSPR. As to conditions: DNA immobilized, LSPR (OpenSPR, COOH chip, 20 uL/min, 5 min, 1:1 fit; running buffer not stated), DNase I footprinting: 400 ng probe in 40 uL, 30 min at 30 C, DNase I 1 min at ….

What is called Kd is the free concentration of one partner at which half of the binding sites on the other are occupied at equilibrium, for simple one-to-one binding. The substance cmr4 (cmr4-alpha) promoter (LSPR) registered a Kd of 0.0172 µM.

Consider csa1 promoter, full-length (LSPR), for which the Kd turned out to be 0.3 µM (20 uM 5'-CAAAA-3') and 4.24 µM (no CAAAA).
